Test results as given in paper PMC4513852.
Read-outs that look alike come from different tables or passages of the source.

Assays:
[1] = target: Hin M109Q (Salmonella enterica) (UniProt P03013); test: native gel or EMSA
[2] = target: Hin M109Y (Salmonella enterica) (UniProt P03013); test: native gel or EMSA
[3] = target: Hin M109F (Salmonella enterica) (UniProt P03013); test: native gel or EMSA
[4] = target: Hin F105M (Salmonella enterica) (UniProt P03013); test: native gel or EMSA
[5] = target: Hin M109R (Salmonella enterica) (UniProt P03013); test: native gel or EMSA
[6] = target: Hin F106K (Salmonella enterica) (UniProt P03013); test: native gel or EMSA
[7] = target: Hin M109K (Salmonella enterica) (UniProt P03013); test: native gel or EMSA
[8] = target: Hin F106G (Salmonella enterica) (UniProt P03013); test: native gel or EMSA
[9] = target: Hin F106C (Salmonella enterica) (UniProt P03013); test: native gel or EMSA
[10] = target: Hin F106H (Salmonella enterica) (UniProt P03013); test: native gel or EMSA
[11] = target: Hin F105V (Salmonella enterica) (UniProt P03013); test: native gel or EMSA
[12] = target: Hin F106Y (Salmonella enterica) (UniProt P03013); test: native gel or EMSA
[13] = target: Hin F106Y (Salmonella enterica) (UniProt P03013)
[14] = target: Hin F106N (Salmonella enterica) (UniProt P03013); test: native gel or EMSA
[15] = target: Hin F105W (Salmonella enterica) (UniProt P03013); test: native gel or EMSA
[16] = target: Hin F106P (Salmonella enterica) (UniProt P03013); test: native gel or EMSA
[17] = target: Hin F106V (Salmonella enterica) (UniProt P03013); test: native gel or EMSA
[18] = target: Hin F105L (Salmonella enterica) (UniProt P03013); test: native gel or EMSA
[19] = target: Hin F105H (Salmonella enterica) (UniProt P03013); test: native gel or EMSA
[20] = target: Hin F106A (Salmonella enterica) (UniProt P03013); test: native gel or EMSA
[21] = target: Hin M109H (Salmonella enterica) (UniProt P03013); test: native gel or EMSA
[22] = target: Hin M109H (Salmonella enterica) (UniProt P03013); test: native gel or EMSA; remark: listed apart in the source
[23] = target: Hin F106E (Salmonella enterica) (UniProt P03013); test: native gel or EMSA
[24] = target: Hin F106Q (Salmonella enterica) (UniProt P03013); test: native gel or EMSA
[25] = target: Hin F106L (Salmonella enterica) (UniProt P03013); test: native gel or EMSA
[26] = target: Hin F106S (Salmonella enterica) (UniProt P03013); test: native gel or EMSA
[27] = target: Hin F106R (Salmonella enterica) (UniProt P03013); test: native gel or EMSA
[28] = target: Hin F105C (Salmonella enterica) (UniProt P03013); test: native gel or EMSA
[29] = target: Hin F105I (Salmonella enterica) (UniProt P03013); test: native gel or EMSA
[30] = target: Hin F106W (Salmonella enterica) (UniProt P03013); test: native gel or EMSA
[31] = target: Hin M109N (Salmonella enterica) (UniProt P03013); test: native gel or EMSA
[32] = target: Hin F105Q (Salmonella enterica) (UniProt P03013); test: native gel or EMSA
[33] = target: Hin F106I (Salmonella enterica) (UniProt P03013); test: native gel or EMSA
[34] = target: Hin M109W (Salmonella enterica) (UniProt P03013); test: native gel or EMSA
[35] = target: Hin F106M (Salmonella enterica) (UniProt P03013); test: native gel or EMSA
[36] = target: Hin F106D (Salmonella enterica) (UniProt P03013); test: native gel or EMSA
[37] = target: Hin-Q134C (wt) (Salmonella enterica) (UniProt P03013); test: cross-linking
[38] = target: Hin F106T (Salmonella enterica) (UniProt P03013); test: native gel or EMSA

## Hin M109Q (from UniProt P03013 1-190) (enzyme)
[1]
  stoichiometry N: 4

## Hin M109Y (from UniProt P03013 1-190) (enzyme)
[2]
  stoichiometry N: 4

## Hin M109F (from UniProt P03013 1-190) (enzyme)
[3]
  stoichiometry N: 2

## Hin F105M (from UniProt P03013 1-190) (enzyme)
[4]
  stoichiometry N: 4

## Hin M109R (from UniProt P03013 1-190) (enzyme)
[5]
  stoichiometry N: 4

## Hin F106K (from UniProt P03013 1-190) (enzyme)
[6]
  stoichiometry N: 2

## Hin M109K (from UniProt P03013 1-190) (enzyme)
[7]
  stoichiometry N: 4

## Hin F106G (from UniProt P03013 1-190) (enzyme)
[8]
  stoichiometry N: 2

## Hin F106C (from UniProt P03013 1-190) (enzyme)
[9]
  stoichiometry N: 2

## Hin F106H (from UniProt P03013 1-190) (enzyme)
[10]
  stoichiometry N: 2

## Hin F105V (from UniProt P03013 1-190) (enzyme)
[11]
  stoichiometry N: 4

## Hin F106Y (from UniProt P03013 1-190) (enzyme)
[12]
  stoichiometry N: 2
[13]
  Fis-activated in vitro DNA inversion rate, relative to wild type (% of the wild-type rate): 10

## Hin F106N (from UniProt P03013 1-190) (enzyme)
[14]
  stoichiometry N: 2

## Hin F105W (from UniProt P03013 1-190) (enzyme)
[15]
  stoichiometry N: 4

## Hin F106P (from UniProt P03013 1-190) (enzyme)
[16]
  stoichiometry N: 2

## Hin F106V (from UniProt P03013 1-190) (enzyme)
[17]
  stoichiometry N: 2

## Hin F105L (from UniProt P03013 1-190) (enzyme)
[18]
  stoichiometry N: 4

## Hin F105H (from UniProt P03013 1-190) (enzyme)
[19]
  stoichiometry N: 4

## Hin F106A (from UniProt P03013 1-190) (enzyme)
[20]
  stoichiometry N: 2

## Hin M109H (from UniProt P03013 1-190) (enzyme)
[21]
  stoichiometry N: 2
[22]
  stoichiometry N: 4

## Hin F106E (from UniProt P03013 1-190) (enzyme)
[23]
  stoichiometry N: 2

## Hin F106Q (from UniProt P03013 1-190) (enzyme)
[24]
  stoichiometry N: 2

## Hin F106L (from UniProt P03013 1-190) (enzyme)
[25]
  stoichiometry N: 2

## Hin F106S (from UniProt P03013 1-190) (enzyme)
[26]
  stoichiometry N: 2

## Hin F106R (from UniProt P03013 1-190) (enzyme)
[27]
  stoichiometry N: 2

## Hin F105C (from UniProt P03013 1-190) (enzyme)
[28]
  stoichiometry N: 4

## Hin F105I (from UniProt P03013 1-190) (enzyme)
[29]
  stoichiometry N: 4

## Hin F106W (from UniProt P03013 1-190) (enzyme)
[30]
  stoichiometry N: 2

## Hin M109N (from UniProt P03013 1-190) (enzyme)
[31]
  stoichiometry N: 2

## Hin F105Q (from UniProt P03013 1-190) (enzyme)
[32]
  stoichiometry N: 4

## Hin F106I (from UniProt P03013 1-190) (enzyme)
[33]
  stoichiometry N: 2

## Hin M109W (from UniProt P03013 1-190) (enzyme)
[34]
  stoichiometry N: 4

## Hin F106M (from UniProt P03013 1-190) (enzyme)
[35]
  stoichiometry N: 2

## Hin F106D (from UniProt P03013 1-190) (enzyme)
[36]
  stoichiometry N: 2

## Hin-Q134C (wt) (from UniProt P03013 1-190) (enzyme)
[37]
  percent crosslinked products: 65%

## Hin F106T (from UniProt P03013 1-190) (enzyme)
[38]
  stoichiometry N: 2
